# From US20080311134A1 (published 2008)
# Target: T1, MUC16 polypeptide, endogenous, on OVCAR-3 cells (human, UniProt Q8WXI7 1-14507)
# T1 construct: whole, on cells; Highly polymorphic repeat protein; also called CA125; O772P
# Assay: flow cytometry on OVCAR-3 cells, 25-400 ng/mL, anti-human Fc secondary antibody
# Description: Bound antibody was detected using a fluorescent anti-human Fc secondary antibody.
# Antibodies were applied at 25, 50, 100, 200, and 400 ng/mL in PBS+1% FBS+2 mM EDTA. After this incubation, cells were washed and then incubated with phycoerythrein-labeled goat anti-human Fc secondary antibody (one hour on ice). Cells were then washed and analyzed by flow cytometry. […] Even the lowest antibody concentration tested (25 ng or approximately 1×10¹¹ antibodies) provides a molar excess of antibodies over binding sites. Therefore, the concentration at which binding is reduced (as detected by flow cytometry) reflect the affinity of the antibody for MUC16.
binder,measurement,value
"A117C thio hu anti-MUC16 3A5 humanized variant (antibody, human IgG1, kappa, V domains shown, Full-length IgG expressed in CHO cells; Kabat 114, Eu 118; also called thio hu anti-MUC16 HC A117C 3A5; A117C thio hu 3A5) VH: EVQLVESGGGLVQPGGSLRLSCAASGYSITNDYAWNWVRQAPGKGLEWVGYISYSGYTTYNPSLKSRFTISRDTSKNTLYLQMNSLRAEDTAVYYCARWTSGLDYWGQGTLVTVSS VL: DIQMTQSPSSLSASVGDRVTITCKASDLIHNWLAWYQQKPGKAPKLLIYGATSLETGVPSRFSGSGSGTDFTLTISSLQPEDFATYYCQQYWTTPFTFGQGTKVEIKR",binding result,binds
